Values quoted from earlier work, collected in paper PMC11231438.

Molecular target: plasminogen (Homo sapiens) (UniProt P00747)
Chain of UniProt P00747 (P00747 20-810): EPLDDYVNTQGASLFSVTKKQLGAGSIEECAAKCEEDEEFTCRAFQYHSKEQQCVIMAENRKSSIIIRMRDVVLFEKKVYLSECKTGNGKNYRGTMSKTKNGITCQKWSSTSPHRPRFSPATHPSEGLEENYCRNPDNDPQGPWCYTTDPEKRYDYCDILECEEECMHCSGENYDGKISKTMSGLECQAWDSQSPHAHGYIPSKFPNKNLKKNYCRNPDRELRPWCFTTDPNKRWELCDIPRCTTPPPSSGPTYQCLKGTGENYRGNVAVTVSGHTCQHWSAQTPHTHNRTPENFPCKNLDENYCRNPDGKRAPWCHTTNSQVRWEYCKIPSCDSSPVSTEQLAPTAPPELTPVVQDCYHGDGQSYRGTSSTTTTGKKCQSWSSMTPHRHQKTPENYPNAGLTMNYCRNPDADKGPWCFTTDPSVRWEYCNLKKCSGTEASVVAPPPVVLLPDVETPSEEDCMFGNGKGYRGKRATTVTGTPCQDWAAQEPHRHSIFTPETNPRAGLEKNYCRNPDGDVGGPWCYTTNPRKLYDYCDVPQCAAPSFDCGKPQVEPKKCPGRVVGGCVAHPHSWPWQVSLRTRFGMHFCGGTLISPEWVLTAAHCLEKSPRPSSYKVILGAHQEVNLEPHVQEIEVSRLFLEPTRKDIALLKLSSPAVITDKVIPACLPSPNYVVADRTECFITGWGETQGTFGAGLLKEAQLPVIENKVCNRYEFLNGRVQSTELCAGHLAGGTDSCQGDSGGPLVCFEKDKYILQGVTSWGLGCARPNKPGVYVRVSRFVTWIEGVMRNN

Substance: enolase (from UniProt Q96X30)
- Kd: 530 nM
